Entries after “also recorded” stand apart in the source; their conditions may differ.
What was measured:
BMP-6 = target: T1, BMP-6 (Homo sapiens, UniProt P22004); settings: cited from earlier work
T1 sequence (P22004 375-513): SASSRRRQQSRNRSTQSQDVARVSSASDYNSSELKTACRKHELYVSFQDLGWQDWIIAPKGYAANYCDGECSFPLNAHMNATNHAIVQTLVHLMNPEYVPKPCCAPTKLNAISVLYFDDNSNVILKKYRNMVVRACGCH

TGF-β2 = target: T2, TGF-β2 (Homo sapiens, UniProt P61812); settings: cited from earlier work
T2 sequence (P61812 303-414 limits assumed): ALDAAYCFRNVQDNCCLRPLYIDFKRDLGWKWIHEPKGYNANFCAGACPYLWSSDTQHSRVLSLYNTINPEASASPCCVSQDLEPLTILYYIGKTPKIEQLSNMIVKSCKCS

TGF-β3 = target: T3, TGF-β3 (Homo sapiens, UniProt P10600); settings: cited from earlier work
T3 sequence (P10600 301-412 limits assumed): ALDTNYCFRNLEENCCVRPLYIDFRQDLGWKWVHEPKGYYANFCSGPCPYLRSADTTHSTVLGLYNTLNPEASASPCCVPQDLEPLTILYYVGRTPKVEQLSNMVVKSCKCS

[1] = Penetration of fluorescently labeled fetuin into lamb burn wounds from different carriers; assay type: in vivo, Merino lambs; settings: 2 mg/mL, lamb scald wounds, 24 hours
Description: Lyophilized bovine Fetuin (Sigma) was dissolved in purified water at a concentration of 10 mg/mL. Aliquots of 200 μL were labeled using a FluoReporter Oregon Green® 488 Protein Labeling Kit (Molecular Probes). Assuming 85% recovery from the kit, the solution was dried down using a vacuum concentrator (Labconco) and added at 2 mg/mL to one of 3 different carriers: paraffin cream, aqueous cream (Orion, Australia) or dissolved in purified water to make an aqueous solution.
Two Merino lambs were scalded under general anesthesia as described previously. Eight wounds were created on each animal; 2× control wounds with nothing added, 2× aqueous solution treated wounds, 2× aqueous cream treated wounds and 2× paraffin cream treated wounds. The wounds were dressed with Melolin and Sleek and the lambs awoken and returned to the pens. 24 hours later the lambs were euthanized and the burn wounds (as well as an unburned area) were collected and fixed in formalin for paraffin embedding. Sections of (4 μm) were taken and examined under a Nikon EP epifluorescent microscope to determine the extent of fetuin penetration in each of the carriers. Brightfield transmittance and Fluorescent green images were captured with a Spot RT slider cooled CCD camera and overlayed with using Photoshop software.

TGF-β1 = TGF-β1 (Homo sapiens, UniProt P01137); settings: cited from earlier work
BMP-2 = target: T4, BMP-2 (Homo sapiens, UniProt P12643); settings: cited from earlier work
T4 sequence (P12643 283-396): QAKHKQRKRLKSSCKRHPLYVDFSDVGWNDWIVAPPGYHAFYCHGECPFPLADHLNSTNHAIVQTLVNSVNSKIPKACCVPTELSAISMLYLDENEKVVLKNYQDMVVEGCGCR

[2] = Penetration of Oregon green labeled fetuin A into wounds in the porcine burn model; assay type: in vivo, pigs; settings: 4 hours post treatment
Description: The potential use of the protein as a topical application was explored by labeling the protein with FluoroReporter Oregon Green® 488 Protein (Molecular Probes) then applying it as 1) a hydrophobic cream 2) a hydrophilic cream and an aqueous solution. These were applied to a porcine burn model and skin samples were collected 4 hours after application. Penetration of the protein into the wound was observed by epifluorescent microscopy.
Lyophilised bovine Fetuin A (Sigma) was dissolved in purified water at a concentration of 10 mg/mL. Aliquots of 200 μl were labelled using a FluoroReporter Oregon Green® 488 Protein Labelling Kit (Molecular Probes) after the manufacturer's instructions. The resulting solution was dried down using a Labconco Centrivap concentrator and weighed. Sufficient carriers (paraffin cream (Orion, Australia), aqueous cream (Orion, Australia) or purified water) were added to produce a final concentration of 2 mg/ml of solution or 2 mg/g fetuin cream. Sufficient unlabelled fetuin A was added to the solution and cream to bring the total fetuin A concentration up to 40 mg/ml or gram.
All animal experiments were approved by the University of Queensland animal ethics committee. Six 20 kg pigs (approximately 9 weeks post partum) were scalded under general anaesthesia. Water (400 mls) was placed in a 500 ml Schott bottle whose base had been removed with a diamond saw and replaced by cling wrap held in place by autoclave tape. The water was heated in a microwave oven to 92° C. (temperature was measured with a Dick Smith Q1437 digital thermometer) then the bottle was placed on the clipped side of the animal for 15 seconds. A single 8.5 cm diameter wound was placed on each side of the animal. Each animal received a different treatment these being:
1. Treatment of intact skin with an aqueous solution of 2 mls of Oregon green labeled bovine fetuin (40 mg/ml in sterile phosphate buffered saline pH 7.4).
2. Treatment of intact skin with an aqueous gel of 2 g of Oregon green labeled bovine fetuin (40 mg/g in Solosite™ wound gel).
3. […]

Sequence of TGF-β1 (P01137 279-390 limits assumed, species assumed): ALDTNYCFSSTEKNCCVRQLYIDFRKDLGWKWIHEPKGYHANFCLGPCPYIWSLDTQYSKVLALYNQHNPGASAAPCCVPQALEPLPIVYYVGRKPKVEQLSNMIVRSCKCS

Fetuin: bovine fetuin A (Sigma); glycoprotein also called alpha2-Heremans-Schmid-glycoprotein (AHSG)
binding to BMP-6 (BMP-6): strongly
binding to TGF-β2 (TGF-β2): strongly
binding to TGF-β3 (TGF-β3): weakly
penetration of labeled fetuin into burn tissue ([1]; aqueous solution): good penetration; also recorded: on the epidermis and at the end of hair follicles
penetration of labeled fetuin into burn tissue ([1]; oil based paraffin cream): little or no penetration
penetration of labeled fetuin into burn tissue ([1]; water based (aqueous) cream): good penetration; also recorded: penetration to the base of the hair follicles
binding to TGF-β1 (TGF-β1): strongly
binding to BMP-2 (BMP-2): strongly
penetration into the wound bed ([2]; debrided wound, aqueous solution): significant penetration into the wound bed
penetration into the wound bed ([2]; debrided wound, water based gel): significant penetration into the wound bed
penetration into the wound bed ([2]; direct injection into the wound): significant penetration into the wound bed

— patent US20090130070A1, “METHOD OF TREATMENT” (The University of Queensland, priority 2004, published 2009)
